The text below walks through data of publication PMC10873595, “Filament structure and subcellular organization of the bacterial intermediate filament–like protein crescentin” (Proceedings of the National Academy of Sciences of the …, 2024).

Like-named read-outs stand apart in the source and are kept apart here.

In assay [1] the target is T1, CreS-His (full-length CreS followed by GSHHHHHH) (Caulobacter crescentus (vibrioides) …).
T1 construct: crescentin (CreS), Caulobacter crescentus (vibrioides), residues 1-457; also called pFE127 product; source: E. coli C41 (DE3), in cleared lysate; also purified (HisTrap, size exclusion chromatography)
T1 chain: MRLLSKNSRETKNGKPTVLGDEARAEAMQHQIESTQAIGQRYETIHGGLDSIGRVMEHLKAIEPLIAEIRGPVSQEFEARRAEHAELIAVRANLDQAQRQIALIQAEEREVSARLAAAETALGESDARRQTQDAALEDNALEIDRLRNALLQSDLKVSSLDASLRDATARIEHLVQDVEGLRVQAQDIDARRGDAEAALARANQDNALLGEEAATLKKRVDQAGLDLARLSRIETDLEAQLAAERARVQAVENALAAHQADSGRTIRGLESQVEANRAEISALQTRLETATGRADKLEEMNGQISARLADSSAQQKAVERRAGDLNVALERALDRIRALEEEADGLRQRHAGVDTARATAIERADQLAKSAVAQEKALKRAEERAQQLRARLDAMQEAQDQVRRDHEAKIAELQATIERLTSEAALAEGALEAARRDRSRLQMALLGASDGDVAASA
As to the kind of experiment: far-Western, overlay or dot blot; cleared lysates of E. coli C41 (DE3) expressing CreS-His variants resolved by SDS-PAGE, blotted, probed with NB13 (7 µg/mL) then α-HA-peroxidase. The following applies: one partner purified.

The target in assay [2] is T1, CreS-His (full-length CreS followed by …).

B1: nanobody 13 (NB13) (VHH)
VHH: QVQLQESGGGLVQTGGSLRLSCASSRSIDGINIMRWYRQAPGKQRGMVAVVTGWGSTNYVDSVKGRFIISRDSAKDTVYLQMNNLKPEDTAVYSCNAIYRGSEYWGQGTQVTVSS
notes: camelid nanobody raised against purified CreSwt; also called CreS-specific nanobody; clone No. 13; source: E. coli WK6, periplasmic extract, purified (HisTrap); not shown: HA, C-terminal, kept
As for B1, in assay [1], the binding result was “binds”.

B2: Megabody MB13 (NB13, YgjK) (VHH)
VHH: AHNTESGEMLFTVKKDSLRLSCASSRSIDGINIMRWYRQAPGKQRGMVAVVTGWGSTNYVDSVKGRFIISRDSAKDTVYLQMNNLKPEDTAVYSCNAIYRGSEYWGQGTQVTVSS
For B2, the binding result in assay [2] is reported as “binds”.
